Test results: patent US20240270821A1, “GIP/GLP1/GCG TRI-RECEPTOR AGONISTS AND USES THEREOF” (priority 2023, published 2024)
Positions count from the first letter of the chain named.

T1: human GIP receptor (human) (UniProt P48546)
T1 sequence (looked up): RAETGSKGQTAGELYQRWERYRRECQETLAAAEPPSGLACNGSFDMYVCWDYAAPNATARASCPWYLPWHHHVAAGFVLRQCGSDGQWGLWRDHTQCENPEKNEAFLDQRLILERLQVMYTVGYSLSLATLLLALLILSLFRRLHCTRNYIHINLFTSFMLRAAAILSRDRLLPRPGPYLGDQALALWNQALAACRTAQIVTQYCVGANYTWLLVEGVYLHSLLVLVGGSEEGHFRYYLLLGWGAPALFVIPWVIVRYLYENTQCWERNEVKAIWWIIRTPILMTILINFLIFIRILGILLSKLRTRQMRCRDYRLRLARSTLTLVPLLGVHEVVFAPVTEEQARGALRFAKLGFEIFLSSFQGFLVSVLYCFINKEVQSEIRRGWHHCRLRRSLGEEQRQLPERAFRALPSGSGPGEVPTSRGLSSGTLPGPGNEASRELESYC

B1: Example 145 (peptide)
chain: YXQGTFTSDFSXXLDKKAQXAFIEYLLEGGESSGAPPPSGS
modifications: synthetic construct; SITE 2: note = 2-Aminoisobutyric Acid; SITE 12: note = L-ornithine; SITE 13: note = alpha-methyl-leucine; SITE 17: note = Lysine is chemically modified through conjugation of the epsilon-amino group of the Lysine side chain with (2-[2-(2-Amino-ethoxy)-ethoxy]-acetyl)-(gamma-Glu)
B2: Example 216 (peptide)
chain: B1 chain with X12K, L27I, G29X
modifications: Aib, αMeL; K acylated AEEA-γGlu-C18 diacid; C-amide; synthetic construct; SITE 2: note = 2-Aminoisobutyric Acid; SITE 13: note = alpha-methyl-leucine; SITE 17: note = Lysine is chemically modified through conjugation of the epsilon-amino group of the Lysine side chain with (2-[2-(2-Amino-ethoxy)-ethoxy]-acetyl)-(gamma-Glu)-CO-(CH2) 16-CO2H; SITE 20: n
B3: Example 206 (peptide)
chain: B1 chain with G29A, E31P, S39E, S41E
modifications: Aib, Orn, αMeL, D-Ala; AEEA-γGlu-C18 diacid acyl; amide; synthetic construct; SITE 2: note = 2-Aminoisobutyric Acid; SITE 12: note = L-ornithine; SITE 13: note = alpha-methyl-leucine; SITE 17: note = Lysine is chemically modified through conjugation of the epsilon-amino group of the Lysine side chain with (2-[2-(2-Amino-ethoxy)-ethoxy]-acetyl)-(gamma-Glu)
B4: Example 195 (peptide)
chain: B1 chain with G29X, E31P, A35E, S39E
modifications: Lys acylated (AEEA)2-γGlu-C18 diacid; non-natural residues; C-terminal amide; synthetic construct; SITE 2: note = 2-Aminoisobutyric Acid; SITE 12: note = L-ornithine; SITE 13: note = alpha-methyl-leucine; SITE 17: note = Lysine is chemically modified through conjugation of the epsilon-amino group of the Lysine side chain with (2-[2-(2-Amino-ethoxy)-ethoxy]-acetyl)2-(gamma-Glu)
B5: Example 197 (peptide)
chain: B1 chain with E31P, S39G, S41T
modifications: non-natural residues; lipidated Lys; synthetic construct; SITE 2: note = 2-Aminoisobutyric Acid; SITE 12: note = L-ornithine; SITE 13: note = alpha-methyl-leucine; SITE 17: note = Lysine is chemically modified through conjugation of the epsilon-amino group of the Lysine side chain with (2-[2-(2-Amino-ethoxy)-ethoxy]-acetyl)-(gamma-Glu)
B6: Example 218 (peptide)
chain: B1 chain with L27I, G29X
modifications: acylated Lys, C-terminal amide, non-natural residues; synthetic construct; SITE 2: note = 2-Aminoisobutyric Acid; SITE 12: note = L-ornithine; SITE 13: note = alpha-methyl-leucine; SITE 17: note = Lysine is chemically modified through conjugation of the epsilon-amino group of the Lysine side chain with (2-[2-(2-Amino-ethoxy)-ethoxy]-acetyl)-(gamma-Glu)
B7: Example 194 (peptide)
chain: B1 chain with G29X, E31P, S39E
modifications: Aib, Orn, αMeL; acylated lysine; C-terminal amide; synthetic construct; SITE 2: note = 2-Aminoisobutyric Acid; SITE 12: note = L-ornithine; SITE 13: note = alpha-methyl-leucine; SITE 17: note = Lysine is chemically modified through conjugation of the epsilon-amino group of the Lysine side chain with (2-[2-(2-Amino-ethoxy)-ethoxy]-acetyl)2-(gamma-Glu)
B8: Example 220 (peptide)
chain: B1 chain with X12R, L27I
modifications: non-natural residues; lysine acylated with AEEA linker C18 diacid; C-amide; synthetic construct; SITE 2: note = 2-Aminoisobutyric Acid; SITE 13: note = alpha-methyl-leucine; SITE 17: note = Lysine is chemically modified through conjugation of the epsilon-amino group of the Lysine side chain with (2-[2-(2-Amino-ethoxy)-ethoxy]-acetyl)-(gamma-Glu)-CO-(CH2) 16-CO2H; SITE 20: n
B9: Example 207 (peptide)
chain: B1 chain with G29A, E31H, S41E
modifications: Aib, Orn, αMeL, D-Ala; lysine acylated C18 diacid; amide; synthetic construct; SITE 2: note = 2-Aminoisobutyric Acid; SITE 12: note = L-ornithine; SITE 13: note = alpha-methyl-leucine; SITE 17: note = Lysine is chemically modified through conjugation of the epsilon-amino group of the Lysine side chain with (2-[2-(2-Amino-ethoxy)-ethoxy]-acetyl)-(gamma-Glu)
B10: Example 159 (peptide)
chain: B1 chain with E31P, S39G, S41Q
modifications: non-natural residues; lipidated Lys; C-terminal amide; synthetic construct; SITE 2: note = 2-Aminoisobutyric Acid; SITE 12: note = L-ornithine; SITE 13: note = alpha-methyl-leucine; SITE 17: note = Lysine is chemically modified through conjugation of the epsilon-amino group of the Lysine side chain with (2-[2-(2-Amino-ethoxy)-ethoxy]-acetyl)-(gamma-Glu)
B11: Example 215 (peptide)
chain: B1 chain with X12K, L27I
modifications: Lys acylated with AEEA-γGlu-C18 diacid; non-natural residues; C-amide; synthetic construct; SITE 2: note = 2-Aminoisobutyric Acid; SITE 13: note = alpha-methyl-leucine; SITE 17: note = Lysine is chemically modified through conjugation of the epsilon-amino group of the Lysine side chain with (2-[2-(2-Amino-ethoxy)-ethoxy]-acetyl)-(gamma-Glu)-CO-(CH2) 16-CO2H; SITE 20: n
B12: Example 178 (peptide)
chain: B1 chain with F10X, G29X, E31P
modifications: Aib, F(4CN), Orn, αMeL; lipidated Lys; C-terminal amide; synthetic construct; SITE 2: note = 2-Aminoisobutyric Acid; SITE 10: note = 4-cyano-L-phenylalanine; SITE 12: note = L-ornithine; SITE 13: note = alpha-methyl-leucine; SITE 17: note = Lysine is chemically modified through conjugation of the epsilon-amino group of the Lysine side chain with (2-[2-(2-
B13: Example 153 (peptide)
chain: B1 chain with E28A, E31P, A35E
modifications: Aib, Orn, αMeL; acylated Lys (AEEA-γGlu2-C18 diacid); C-terminal amide; synthetic construct; SITE 2: note = 2-Aminoisobutyric Acid; SITE 12: note = L-ornithine; SITE 13: note = alpha-methyl-leucine; SITE 17: note = Lysine is chemically modified through conjugation of the epsilon-amino group of the Lysine side chain with (2-[2-(2-Amino-ethoxy)-ethoxy]-acetyl)-(gamma-Glu)
B14: Example 150 (peptide)
chain: B1 chain with X12Q, E31P
modifications: Aib, αMeL; lipidated Lys; C-terminal amide; synthetic construct; SITE 2: note = 2-Aminoisobutyric Acid; SITE 13: note = alpha-methyl-leucine; SITE 17: note = Lysine is chemically modified through conjugation of the epsilon-amino group of the Lysine side chain with (2-[2-(2-Amino-ethoxy)-ethoxy]-acetyl)-(gamma-Glu)-CO-(CH2) 16-CO2H; SITE 20: n

Key:
Assay in all cases: cell-based or functional assay
hGLP-1R = hGLP-1R (Homo sapiens, UniProt P43220)
[1] = target: human glucagon receptor (human) (UniProt P47871)
[2] = target: T1, human GIP receptor (human)

Chain of hGLP-1R (P43220 24-463): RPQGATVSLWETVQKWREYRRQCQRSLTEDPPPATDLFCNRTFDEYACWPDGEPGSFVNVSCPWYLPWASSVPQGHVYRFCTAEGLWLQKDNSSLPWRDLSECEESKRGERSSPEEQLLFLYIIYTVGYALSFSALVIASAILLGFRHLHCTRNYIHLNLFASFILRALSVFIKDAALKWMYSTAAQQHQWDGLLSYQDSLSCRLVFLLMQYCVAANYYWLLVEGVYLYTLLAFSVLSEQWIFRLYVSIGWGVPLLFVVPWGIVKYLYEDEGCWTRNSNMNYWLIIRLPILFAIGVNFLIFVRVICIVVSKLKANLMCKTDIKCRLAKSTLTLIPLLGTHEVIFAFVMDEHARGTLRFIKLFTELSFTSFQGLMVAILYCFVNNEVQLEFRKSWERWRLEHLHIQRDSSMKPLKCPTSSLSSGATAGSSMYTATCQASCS
Chain of human glucagon receptor (human) (P47871 26-477): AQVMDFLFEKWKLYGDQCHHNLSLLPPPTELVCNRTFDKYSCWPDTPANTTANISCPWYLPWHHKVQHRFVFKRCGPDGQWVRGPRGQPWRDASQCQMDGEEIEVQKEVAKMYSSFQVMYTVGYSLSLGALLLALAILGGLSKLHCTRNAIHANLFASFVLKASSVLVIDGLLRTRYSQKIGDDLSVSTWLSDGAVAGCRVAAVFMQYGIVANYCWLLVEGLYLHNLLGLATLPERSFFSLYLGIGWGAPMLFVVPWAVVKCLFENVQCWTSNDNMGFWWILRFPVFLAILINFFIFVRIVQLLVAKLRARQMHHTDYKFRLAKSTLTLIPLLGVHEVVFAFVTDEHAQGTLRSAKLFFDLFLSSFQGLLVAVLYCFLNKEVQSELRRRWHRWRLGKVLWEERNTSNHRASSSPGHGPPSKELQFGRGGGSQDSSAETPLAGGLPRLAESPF

Binder | Relative cAMP EC50 (hGLP-1R) | cAMP Rel EC50, nM (in the presence of 1% HSA) (hGLP-1R) | Relative cAMP EC50 [1] | cAMP Rel EC50, nM (in the presence of 1% HSA) [1] | Relative cAMP EC50 [2] | cAMP Rel EC50, nM (in the presence of 1% HSA) [2] | cAMP Rel EC50, nM (1% HSA) (hGLP-1R) | cAMP Rel EC50, nM (1% HSA) [1] | cAMP Rel EC50, nM (1% HSA) [2] | Relative cAMP EC50, nM (0.1% casein) (hGLP-1R) | Relative cAMP EC50, nM (0.1% casein) [1] | Relative cAMP EC50, nM (0.1% casein) [2]
B1 | 4.26 nM | 1480 nM | 3.14 nM | 693 nM | 0.539 nM | 108 nM | – | – | – | – | – | –
B2 | 0.52 nM | – | 2.7 nM | – | 0.0887 nM | – | 90.6 nM | 895 nM | 12 nM | – | – | –
B3 | 2.77 nM | – | 2.2 nM | – | 0.224 nM | – | 372 nM | 545 nM | 38.8 nM | – | – | –
B4 | – | – | – | – | – | – | 829 nM | 605 nM | 28.8 nM | 6.13 nM | 3.1 nM | 0.145 nM
B5 | 4.81 nM | – | 3.23 nM | – | 0.31 nM | – | 440 nM | 613 nM | 44.1 nM | – | – | –
B6 | 0.76 nM | – | 7.89 nM | – | 0.0853 nM | – | – | – | – | – | – | –
B7 | – | – | – | – | – | – | 697 nM | 813 nM | 19.7 nM | 4.69 nM | 4.32 nM | 0.212 nM
B8 | 1.01 nM | – | 11.2 nM | – | 0.411 nM | – | 189 nM | 1990 nM | 87.1 nM | – | – | –
B9 | 4.36 nM | – | 4.24 nM | – | 0.321 nM | – | 225 nM | 770 nM | 15.2 nM | – | – | –
B10 | – | – | – | – | – | – | 588 nM | 475 nM | 49.7 nM | 4.15 nM | 6.89 nM | 0.343 nM
B11 | 0.803 nM | – | 9.77 nM | – | 0.418 nM | – | 162 nM | 1510 nM | 87.3 nM | – | – | –
B12 | – | – | – | – | – | – | – | – | – | 4.01 nM | 7.29 nM | 0.34 nM
B13 | – | – | – | – | – | – | 488 nM | 1210 nM | 16.8 nM | 7.09 nM | 14.7 nM | 0.218 nM
B14 | – | – | – | – | – | – | 463 nM | 1920 nM | 50.6 nM | 2.63 nM | 5.37 nM | 0.346 nM
